Assay results taken from US20250263470A1 (AstraZeneca / MedImmune, published 2025).

Target: HA of influenza B virus B/Florida/4/2006 (yamagata) (influenza B virus B/Florida/4/2006)
Assay: cell-based or functional assay

Binder	Neutralization (Ave IC50 ug/ml) [µg/mL]
FBD-56 (antibody, V domains shown) VH: EVQLVESGGHLVQPGRSLRLSCAASGFTFEDYAMNWVRQAPGKGLEWVSVISWDSGRIGYADSVKGRFTISRDNAKNSSYLQMNSLRPEDTALYYCVRDMLAYYSDNSGKKYNVYGMDVWGQGTTVTVSS VL: EIVLTQSPATLSLSPGERATLSCRASQSVSTFLAWYQQKPGQAPRLLMYDASNRATGIPARFSGSGSGTDFTLTISSLEPEDFAIYYCQQRSHWPPIFGQGTRLEIK	0.013
FBD-94 (antibody, V domains shown) VH: EVQLVESGGGLVQPGRSLRLSCAVSGFIFEDYAINWVRQAPGKGLEWVSIISWDSGRIGYADSVRGRFTISRDNAKNSSFLQMNSLRPEDTAVYYCVKDMLAYYYDGSGIRYNLYGMDVWGQGTTVTVSS VL: EIVLTQSPATLSLSPGERATLSCRASRSITTFLAWYQQKPGQAPRLLIYDASNRATGVPARFSGSGSGTDFTLTINSLEPDDFAIYYCQQRDHWPPIFGQGTRLEIK	0.016
FBC-39 (antibody, V domains shown) VH: EVQLVVSGGGLVKPGGSLRLSCAASGLSFLNAWMSWVRQAPGKGLEWVGRIKSNTDGGTTDYAAPVKGRFSISRDDSKNMLFLHMSSLRTEDTAVYYCATDGPYSDDFRSGYAARYRYFGMDVWGQGTTVTVSS VL: DIQMTQSPSSVSASVGDRVTITCRASQDISTWLAWYQQKPGKAPKLLIYAASSLQSGVPSRFSGSGSGTDFTLTISSLQPEDFATYFCQQANSFPPTFGQGTKLEIK	0.046
FBC-39 LSL (antibody, V domains shown) VH: EVQLVESGGGLVKPGGSLRLSCAASGLSFLNAWMSWVRQAPGKGLEWVGRIKSNTDGGTTDYAAPVKGRFTISRDDSKNTLYLQMSSLKTEDTAVYYCTTDGPYSDDFRSGYAARYRYFGMDVWGQGTTVTVSS VL: DIQMTQSPSSVSASVGDRVTITCRASQDISTWLAWYQQKPGKAPKLLIYAASSLQSGVPSRFSGSGSGTDFTLTISSLQPEDFATYYCQQANSFPPTFGQGTKLEIK	0.016
FBC-39 FSL (antibody, V domains shown) VH: EVQLVESGGGLVKPGGSLRLSCAASGFSFLNAWMSWVRQAPGKGLEWVGRIKSNTDGGTTDYAAPVKGRFTISRDDSKNTLYLQMSSLKTEDTAVYYCTTDGPYSDDFRSGYAARYRYFGMDVWGQGTTVTVSS VL: DIQMTQSPSSVSASVGDRVTITCRASQDISTWLAWYQQKPGKAPKLLIYAASSLQSGVPSRFSGSGSGTDFTLTISSLQPEDFATYYCQQANSFPPTFGQGTKLEIK	0.017
FBC-39 LTL (antibody, V domains shown) VH: EVQLVESGGGLVKPGGSLRLSCAASGLTFLNAWMSWVRQAPGKGLEWVGRIKSNTDGGTTDYAAPVKGRFTISRDDSKNTLYLQMSSLKTEDTAVYYCTTDGPYSDDFRSGYAARYRYFGMDVWGQGTTVTVSS VL: DIQMTQSPSSVSASVGDRVTITCRASQDISTWLAWYQQKPGKAPKLLIYAASSLQSGVPSRFSGSGSGTDFTLTISSLQPEDFATYYCQQANSFPPTFGQGTKLEIK	0.023
FBC-39 FTL (antibody, V domains shown) VH: EVQLVESGGGLVKPGGSLRLSCAASGFTFLNAWMSWVRQAPGKGLEWVGRIKSNTDGGTTDYAAPVKGRFTISRDDSKNTLYLQMSSLKTEDTAVYYCTTDGPYSDDFRSGYAARYRYFGMDVWGQGTTVTVSS VL: DIQMTQSPSSVSASVGDRVTITCRASQDISTWLAWYQQKPGKAPKLLIYAASSLQSGVPSRFSGSGSGTDFTLTISSLQPEDFATYYCQQANSFPPTFGQGTKLEIK	0.014
